For the assay, the target named is c-Met (UniProt P08581). The experiment in a line: Biacore SPR. A general note: In SPR one partner is held on a chip, and binding of the other changes the refractive index at the surface.

The text below walks through data of patent US20190359719A1.

c-Met, sequence (P08581 25-932): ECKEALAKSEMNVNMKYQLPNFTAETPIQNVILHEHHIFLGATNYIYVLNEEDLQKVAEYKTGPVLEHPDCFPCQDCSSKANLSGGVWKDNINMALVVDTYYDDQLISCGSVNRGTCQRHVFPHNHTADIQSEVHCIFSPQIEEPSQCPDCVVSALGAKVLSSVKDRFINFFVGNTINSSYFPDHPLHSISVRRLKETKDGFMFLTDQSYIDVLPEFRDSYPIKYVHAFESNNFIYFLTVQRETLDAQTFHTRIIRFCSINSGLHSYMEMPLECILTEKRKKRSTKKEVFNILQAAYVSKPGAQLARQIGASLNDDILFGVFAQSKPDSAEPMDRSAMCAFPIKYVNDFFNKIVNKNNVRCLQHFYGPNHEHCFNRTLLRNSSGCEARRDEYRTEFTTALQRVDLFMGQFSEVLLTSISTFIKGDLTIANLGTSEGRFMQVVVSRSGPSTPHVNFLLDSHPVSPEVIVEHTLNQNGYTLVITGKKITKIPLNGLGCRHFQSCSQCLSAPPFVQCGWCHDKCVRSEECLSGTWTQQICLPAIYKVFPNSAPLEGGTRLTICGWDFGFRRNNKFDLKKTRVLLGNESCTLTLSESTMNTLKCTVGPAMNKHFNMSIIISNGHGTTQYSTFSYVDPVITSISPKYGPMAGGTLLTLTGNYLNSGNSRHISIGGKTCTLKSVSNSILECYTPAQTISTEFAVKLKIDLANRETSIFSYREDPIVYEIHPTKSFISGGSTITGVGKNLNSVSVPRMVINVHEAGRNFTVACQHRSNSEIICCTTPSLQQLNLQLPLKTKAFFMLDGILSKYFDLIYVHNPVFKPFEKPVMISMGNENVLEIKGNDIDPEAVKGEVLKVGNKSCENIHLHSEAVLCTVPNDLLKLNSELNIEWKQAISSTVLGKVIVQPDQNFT

As for 5D5, the Ka was 5.89e+09 M⁻¹ and the Kd came to 0.17 nM.

One may read the Kd as the concentration at which binding is half-saturated.
